# Earlier results as cited in PMC6691393.
# Target: Survivin BIR (Homo sapiens) (UniProt O15392)
# Sequence of UniProt O15392 (O15392 15-91): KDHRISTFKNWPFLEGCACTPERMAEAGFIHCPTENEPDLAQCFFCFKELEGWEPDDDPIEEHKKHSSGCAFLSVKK
substance,measurement,value
SMAC/Diablo N-terminal peptide (from UniProt Q9NR28),Kd,121 µM
